Assay [1] addresses T1, his-tagged rhTLR4/MD2 (human, UniProt O00206 24-631; Q9Y6Y9 19-160).
T1 construct: Bought recombinant human complex (carrier free, R&D SYSTEMS), his-tagged; In the pull-down it was captured by anti-His antibody on Protein A/G agarose; in the ELISA it was coated on the plate; also called TLR4/MD2 complex; TRLR4/MD2
The experiment in a line: pull-down on beads carrying TLR4/MD2, MALDI-TOF mass spectrometry of the eluate. How it is done:
Anti-His antibody (5 μL, 0.5 mg/mL, Invivogen) and his-tagged rhTLR4/MD2 (5 μL, 1 mg/mL, carrier free, R&D SYSTEMS) were mixed and coupled to Protein A/G Agarose (50 μl, Pierce, Thermo Scientific). Trypsin digested peptides of S100A9 were added for 3 h at 4° C. in the presence of 1 mM Calcium. After washing of the beads in HBS/1 mM Ca-buffer for three times bound peptidic fragments were eluted by addition of 10 mM TRIS/2 mM EDTA-buffer and analysed by ESI-QIT- and MALDI-TOF-mass spectrometry. Identical experiments were performed to analyze the binding of the chemical synthesized peptides of S100A9 (aa63-79), S100A8 (aa55-71) and the corresponding control peptides aa63-79 AS and aa55-71 A3.

The target of assay [2] is T1, his-tagged rhTLR4/MD2. As to the kind of experiment: modified S100A9 ELISA, TLR4/MD2 coated on the plate, 2 ug/ml S100A9, absorbance at 450 nm. How it is done:
Binding of S100A9 proteins to TLR4/MD2 was analysed by a modified S100A9-ELISA. Briefly, TLR4/MD2 was coupled to the wells of a 96-well plate and served as capturing molecule. After blocking of the unspecific binding sites by PBS/5% skim milk powder plates were washed three times. S100A9-wt or mutant S100A9 proteins were added at a concentration of 2 μg/ml each in the presence and absence of 100 μM Calcium and incubated for two hours at room temperature. Unbound S100A9 was removed by washing the plates for three times followed by the addition of a primary anti-S100A9-antibody (1 μg/ml, polyclonal, rabbit). After a washing step the secondary anti-rabbit-IgG-antibody coupled to HRP (1 μg/ml from Cell Signalling) was added. TMB was used as substrate for HRP to quantify binding by absorbance readings at 450 nm in an ELISA reader (Anthos Mirkosysteme).
On the technique in general: An ELISA detects its analyte on a solid surface through an enzyme-linked reagent.

In assay [3] the test system is (S100A8/S100A9)2 tetramers. As to the kind of experiment: Formation of (S100A8/S100A9)2 tetramers after site directed mutagenesis. Also on record: species or system human. The following applies: mutation in second calcium binding EF hand of S100A9. How it is done: For the expression of recombinant (rec) proteins without additional peptide sequences, the cDNAs from wt S100A8, wt S100A9 and the S100A9 EF-hand mutants were cloned into the pET11/20 vector [50-NdeI; 30-BamHI]. […] Bacteria were grown at 37° C. in 2×YT for 24 h. Afterwards bacteria were harvested, lysed and the inclusion bodies (IB) prepared. The IB pellet was dissolved in 8 M urea buffer and to establish proper refolding samples were adjusted to pH 2.0-2.5 first by adding hydrochloric acid. After 60 min incubation at room temperature, samples were stepwise dialyzed to get adapted to pH 7.4 for refolding in the presence of 2 mM DTT. After centrifugation (10 min, 60,000 g, 4° C.) to pellet aggregated material, samples were further dialyzed and applied to anion exchange column and gel filtration chromatography. To prepare heterodimeric complexes the recombinant proteins were mixed 1:1 in equimolar concentrations first. Samples were stored as stock solutions at −20° C. Correct refolding and complex formation was assessed by SDS-PAGE, CD spectroscopy, MALDI-MS and ESI-MS.

The subject of another assay is human monocytes. The experiment in a line: Stimulation of human monocytes, TNFα release quantified by ELISA. Format: cell-based. Conditions: human monocytes stimulated for four hours; TNFα by ELISA; FIG. 1. The text has this: Using standard techniques known in the art, the inventors expressed the individual human proteins S100A8 and S100A9 in recombinant form, and purified them. After generating homodimers and heterodimers, they analysed the properties of the complexes. FIG. 1 illustrates the stimulation of human monocytes for four hours with the indicated concentrations of (A) recombinant human S100A8, recombinant human S100A9 or human S100A8/S100A9, and (B) recombinant human S100A8/S100A9, recombinant human S100A8/S100A9 (N69A) or S100A8/S100A9 (E78A). TNFα released into the culture medium was quantified by means of ELISA.
Monocytes were isolated from human buffy coats by Ficoll-Paque and subsequent Percoll density centrifugation (Pharmacia, Freiburg, Germany) Cells were cultured in Teflon bags (Biofolie 25; Heraeus Instruments, Hanau, Germany) using McCoy's 5a medium supplemented with 15% fetal calf serum for 1 day before stimulation. Monocytes were incubated for 4 hours with different dosis of hS100A8, hS100A9, hS100A8/S100A9 or the modified proteins as indicated in the figures and TNF-α concentrations in supernatants were determined by ELISA (OptEIA, BD Biosciences, Germany).
Release of cytokine TNF-α was measured in the culture supernatants by ELISA (OptEIA, BD Biosciences). […]

Positions count from the first letter of the chain named. In names and notes the source's numbering stands.

T1 sequence (O00206 24-631 limits assumed, chain 1 of 2): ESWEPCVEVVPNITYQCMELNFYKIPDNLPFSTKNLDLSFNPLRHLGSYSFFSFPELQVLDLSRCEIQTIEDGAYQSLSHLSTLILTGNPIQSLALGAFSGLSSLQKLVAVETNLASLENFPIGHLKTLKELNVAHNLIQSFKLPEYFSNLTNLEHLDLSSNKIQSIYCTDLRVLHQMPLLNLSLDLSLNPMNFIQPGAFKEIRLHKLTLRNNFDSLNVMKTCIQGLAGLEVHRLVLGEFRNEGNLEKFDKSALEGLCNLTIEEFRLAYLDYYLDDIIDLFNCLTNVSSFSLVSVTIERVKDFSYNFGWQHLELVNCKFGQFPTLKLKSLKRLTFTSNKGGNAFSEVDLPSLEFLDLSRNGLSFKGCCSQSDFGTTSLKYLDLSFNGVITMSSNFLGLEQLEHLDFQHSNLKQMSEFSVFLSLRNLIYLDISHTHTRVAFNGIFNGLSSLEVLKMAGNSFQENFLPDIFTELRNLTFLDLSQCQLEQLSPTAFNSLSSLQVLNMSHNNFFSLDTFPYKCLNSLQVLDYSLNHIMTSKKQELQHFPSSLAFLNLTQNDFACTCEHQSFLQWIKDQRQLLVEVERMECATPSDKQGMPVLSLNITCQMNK
T1 sequence (Q9Y6Y9 19-160 limits assumed, chain 2 of 2): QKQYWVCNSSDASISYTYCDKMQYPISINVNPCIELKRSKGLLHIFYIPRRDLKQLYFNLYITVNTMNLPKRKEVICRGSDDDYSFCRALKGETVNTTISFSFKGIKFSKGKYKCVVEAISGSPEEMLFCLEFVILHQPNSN

B1: control peptide 63-79 5A of S100A9 (E64A, D65A, K72A, Q73A, E77A) (peptide)
peptide: MAALDTNADAALSFAEF
notes: Chemically synthesized control peptide, molecular weight 1758 g/mol; Positions follow the numbering of full-length S100A9 ('nomenclature of S100A9 maintained'); also called 63-79 A5; 63-79 AS
B1: the binding result with his-tagged rhTLR4/MD2 [1] is reported as “no binding”.

B2: recombinant human S100A9 (wild type, homodimer) (ligand)
chain: MTCKMSQLERNIETIINTFHQYSVKLGHPDTLNQGEFKELVRKDLQNFLKKENKNEKVIEHIMEDLDTNADKQLSFEEFIMLMARLTWASHEKMHEGDEGPGHHHKPGLGEGTP
notes: Uniprot P06702; used as a homodimer; also called S100A9 wt; S100A9-wt
Take B2: the binding result in the assay with his-tagged rhTLR4/MD2 [2] is “binds”.

B3: S100A8/S100A9 (E78A): recombinant human S100A8/S100A9 with S100A9 EF hand II mutation E78A, prevents tetramer formation (protein)
chain 1: MLTELEKALNSIIDVYHKYSLIKGNFHAVYRDDLKKLLETECPQYIRKKGADVWFKELDINTDGAVNFQEFLILVIKMGVAAHKKSHEESHKE
chain 2: B2 chain with E78A
Take B3: in assay [3], the tetramer formation result is on record as “inhibition of tetramer formation”. Moreover, in the assay on human monocytes, the “activation of monocytes (TNFα released into the culture medium)” value is listed as “activation of monocytes that is comparable to the activation caused by homodimers”.

B4: S100A8/S100A9 (N69A): recombinant human S100A8/S100A9 with S100A9 EF hand II mutation N69A, prevents tetramer formation (protein)
chain 1: B3 chain 1
chain 2: B2 chain with N69A
For the molecule B4, the tetramer formation entry in assay [3] is “inhibition of tetramer formation”. Further, the “activation of monocytes (TNFα released into the culture medium)” value in the assay on human monocytes is recorded as “activation of monocytes that is comparable to the activation caused by homodimers”.
